Laboratory results reported in EP4640700A1 (Harbour Biomed (Shanghai) Co., Ltd, dated 2025).

How the values were obtained:
human B7H4 [1] = biological target: T1, human B7H4 (human, UniProt Q7Z7D3 25-282); assay: flow cytometry (FACS) on SK-BR-3 cells with high B7H4 expression
T1 construct: whole, on cells; Species is stated as human for CHO-K1/hB7H4; SK-BR-3 is only called a tumor cell line with high B7H4 expression; also called VTCN1; hB7H4
T1 sequence (looked up): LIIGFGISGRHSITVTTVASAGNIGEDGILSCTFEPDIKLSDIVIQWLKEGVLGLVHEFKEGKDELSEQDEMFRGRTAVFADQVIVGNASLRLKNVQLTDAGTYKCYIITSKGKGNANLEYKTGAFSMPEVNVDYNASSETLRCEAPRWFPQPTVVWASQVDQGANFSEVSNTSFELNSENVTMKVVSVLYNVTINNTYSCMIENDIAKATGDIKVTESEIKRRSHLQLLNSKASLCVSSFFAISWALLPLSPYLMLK

human B7H4 [2] = biological target: T1, human B7H4; assay: cell-based or functional assay
human serum albumin = biological target: T2, human serum albumin (human, UniProt P02768 25-609); assay: binding to human serum albumin, Fig. 19; method not described
T2 construct: Bought reagent; also called HSA
T2 sequence (P02768 25-609 limits assumed): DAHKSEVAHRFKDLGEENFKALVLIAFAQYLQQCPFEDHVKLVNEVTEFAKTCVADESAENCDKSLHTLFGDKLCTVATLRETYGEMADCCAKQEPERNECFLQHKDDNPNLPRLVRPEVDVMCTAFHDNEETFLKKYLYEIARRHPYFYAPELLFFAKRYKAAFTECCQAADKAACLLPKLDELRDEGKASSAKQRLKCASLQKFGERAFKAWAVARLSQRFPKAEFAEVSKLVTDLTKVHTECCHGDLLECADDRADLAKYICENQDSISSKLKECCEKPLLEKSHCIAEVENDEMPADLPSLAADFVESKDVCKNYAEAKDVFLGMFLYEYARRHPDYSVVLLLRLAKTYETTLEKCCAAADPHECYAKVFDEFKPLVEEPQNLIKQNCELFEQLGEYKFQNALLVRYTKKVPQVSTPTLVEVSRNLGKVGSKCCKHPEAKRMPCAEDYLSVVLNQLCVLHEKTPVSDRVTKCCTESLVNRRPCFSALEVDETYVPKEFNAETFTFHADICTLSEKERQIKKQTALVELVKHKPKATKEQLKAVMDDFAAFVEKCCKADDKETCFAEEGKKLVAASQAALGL

PSMA = PSMA (UniProt Q04609 1-750); assay: cell-based or functional assay
Sequence of PSMA (Q04609 whole entry): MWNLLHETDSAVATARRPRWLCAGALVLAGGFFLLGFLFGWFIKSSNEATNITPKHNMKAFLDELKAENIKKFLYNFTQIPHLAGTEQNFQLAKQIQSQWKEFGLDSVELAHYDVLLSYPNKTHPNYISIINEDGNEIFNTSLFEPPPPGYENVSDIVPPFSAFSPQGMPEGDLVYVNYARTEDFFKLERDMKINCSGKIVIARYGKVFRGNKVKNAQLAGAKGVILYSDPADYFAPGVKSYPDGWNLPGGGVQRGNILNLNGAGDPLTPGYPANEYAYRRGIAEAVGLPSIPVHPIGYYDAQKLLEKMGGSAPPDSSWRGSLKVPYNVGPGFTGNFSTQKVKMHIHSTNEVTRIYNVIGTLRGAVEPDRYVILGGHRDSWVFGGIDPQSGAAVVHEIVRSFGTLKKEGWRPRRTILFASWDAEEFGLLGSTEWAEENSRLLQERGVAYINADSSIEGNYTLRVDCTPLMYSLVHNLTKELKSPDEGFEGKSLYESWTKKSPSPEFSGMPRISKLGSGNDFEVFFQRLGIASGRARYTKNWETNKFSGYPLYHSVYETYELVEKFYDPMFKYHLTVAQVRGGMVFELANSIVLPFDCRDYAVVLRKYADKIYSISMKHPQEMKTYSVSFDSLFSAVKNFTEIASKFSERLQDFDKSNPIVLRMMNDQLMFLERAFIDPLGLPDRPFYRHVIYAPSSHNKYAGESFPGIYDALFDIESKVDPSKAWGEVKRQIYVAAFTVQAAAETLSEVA

BCMA = biological target: T3, BCMA (UniProt Q02223 1-184); assay: cell-based or functional assay
T3 sequence (looked up): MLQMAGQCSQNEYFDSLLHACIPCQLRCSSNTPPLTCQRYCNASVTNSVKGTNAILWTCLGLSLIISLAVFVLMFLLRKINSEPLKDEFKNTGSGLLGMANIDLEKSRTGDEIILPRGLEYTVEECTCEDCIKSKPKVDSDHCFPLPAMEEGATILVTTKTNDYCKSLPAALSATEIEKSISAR

human ROR1 = human ROR1 (human, UniProt Q01973 30-937); assay: cell-based or functional assay
Sequence of human ROR1 (Q01973 30-937): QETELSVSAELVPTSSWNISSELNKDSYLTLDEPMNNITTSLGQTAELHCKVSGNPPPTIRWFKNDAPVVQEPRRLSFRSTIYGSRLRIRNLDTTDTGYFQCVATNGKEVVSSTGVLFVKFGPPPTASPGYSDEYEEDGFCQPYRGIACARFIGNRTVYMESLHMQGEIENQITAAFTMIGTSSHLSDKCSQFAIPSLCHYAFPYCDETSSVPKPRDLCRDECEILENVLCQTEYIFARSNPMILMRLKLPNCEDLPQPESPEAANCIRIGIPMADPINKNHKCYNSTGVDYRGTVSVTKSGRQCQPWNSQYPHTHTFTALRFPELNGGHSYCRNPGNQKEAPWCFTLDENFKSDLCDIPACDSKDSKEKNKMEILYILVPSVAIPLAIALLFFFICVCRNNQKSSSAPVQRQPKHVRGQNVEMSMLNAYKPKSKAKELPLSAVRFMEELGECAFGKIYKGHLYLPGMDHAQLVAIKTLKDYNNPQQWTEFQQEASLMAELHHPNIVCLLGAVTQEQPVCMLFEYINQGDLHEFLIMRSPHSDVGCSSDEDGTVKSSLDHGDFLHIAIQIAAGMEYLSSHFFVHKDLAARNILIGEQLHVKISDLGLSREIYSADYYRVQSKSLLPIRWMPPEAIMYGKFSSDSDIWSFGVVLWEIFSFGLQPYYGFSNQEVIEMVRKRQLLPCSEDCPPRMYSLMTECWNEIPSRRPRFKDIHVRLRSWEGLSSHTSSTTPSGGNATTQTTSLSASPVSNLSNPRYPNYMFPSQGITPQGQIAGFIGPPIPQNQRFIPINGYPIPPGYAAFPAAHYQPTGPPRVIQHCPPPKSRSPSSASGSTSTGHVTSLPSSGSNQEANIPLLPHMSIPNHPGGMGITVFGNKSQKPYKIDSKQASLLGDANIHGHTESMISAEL

B1: PR000317 (bispecific antibody)
chain 1: EVQLVQSGAEVKKPGASVKVSCKASGYTFTSYWIGWVRQAPGQGLEWIGDIYPGGGYTNYNEKFKGRVTITRDTSTSTAYLELSSLRSEDTAVYYCARLAGSSYRGAMDSWGQGTLVTVSSASTKGPSVFPLAPSSKSTSGGTAALGCLVKDYFPEPVTVSWNSGALTSGVHTFPAVLQSSGLYSLSSVVTVPSSSLGTQTYICNVNHKPSNTKVDKKVEPKSC
chain 2: DIQMTQSPSSLSASVGDRVTITCKASQGFNKYVAWYQQKPGKAPKLLIYYTSTLQPGVPSRFSGSGSGRDYTLTISSLQPEDFATYYCLQYGDLLYAFGQGTKVEIKRTVAAPSVFIFPPSDEQLKSGTASVVCLLNNFYPREAKVQWKVDNALQSGNSQESVTEQDSKDSTYSLSSTLTLSKADYEKHKVYACEVTHQGLSSPVTKSFNRGECEVQLVESGGGLVQPKGSLKLSCAASGFTFNTYAMNWVRQAPGKGLEWVARIRSKYNNYATYYADSVKDRFTISRDDSQSILYLQMNNLKTEDTAMYYCVRHGNFGNSYVSWFAYWGQGTLVTVSAASTKGPSVFPLAPSSKSTSGGTAALGCLVKDYFPEPVTVSWNSGALTSGVHTFPAVLQSSGLYSLSSVVTVPSSSLGTQTYICNVNHKPSNTKVDKKVEPKSC
light: QAVVTQESALTTSPGETVTLTCRSSTGAVTTSNYANWVQEKPDHLFTGLIGGTNKRAPGVPARFSGSLIGDKAALTITGAQTEDEAIYFCALWYSNLWVFGGGTKLTVLGQPKAAPSVTLFPPSSEELQANKATLVCLISDFYPGAVTVAWKADSSPVKAGVETTTPSKQSNNKYAASSYLSLTPEQWKSHRSYSCQVTHEGSTVEKTVAPTECS
notes: Three-chain Fab-Fab without Fc; N-terminal Fab-A from PR000157 (anti-B7H4), C-terminal Fab-B from PR000260 (anti-CD3 SP34); also called Anti-B7H4xCD3 1D11-SP34 Fab-Fab; B7H4xCD3 "κ/λ" Fab-Fab antibody
- EC50 (human B7H4 [1]): 22 nM
- Cell killing EC50 (human B7H4 [2]): 0.0018 nM
- Maximum killing rate (%) (human B7H4 [2]): 33.9%

B2: PR001325 (bispecific antibody)
chain 1: EVQLVQSGAEVKKPGASVKVSCKASGYTFTSYWIGWVRQAPGQGLEWIGDIYPGGGYTNYNEKFKGRVTITRDTSTSTAYLELSSLRSEDTAVYYCARLAGSSYRGAMDSWGQGTLVTVSSASTKGPSVFPLAPSSKSTSGGTAALGCLVKDYFPEPVTVSWNSGALTSGVHTFPAVLQSSGLYSLSSVVTVPSSSLGTQTYICNVNHKPSNTKVDKKVEPKSC
chain 2: DIQMTQSPSSLSASVGDRVTITCKASQGFNKYVAWYQQKPGKAPKLLIYYTSTLQPGVPSRFSGSGSGRDYTLTISSLQPEDFATYYCLQYGDLLYAFGQGTKVEIKRTVAAPSVFIFPPSDEQLKSGTASVVCLLNNFYPREAKVQWKVDNALQSGNSQESVTEQDSKDSTYSLSSTLTLSKADYEKHKVYACEVTHQGLSSPVTKSFNRGECEVQLVESGGGLVQPGGSLKLSCAASGFTFNTYAMNWVRQASGKGLEWVGRIRSKYNNYATYYADSVKDRFTISRDDSKSTLYLQMNSLKTEDTAVYYCVRHGNFGNSYVSWFAYWGQGTLVTVSSASTKGPSVFPLAPSSKSTSGGTAALGCLVKDYFPEPVTVSWNSGALTSGVHTFPAVLQSSGLYSLSSVVTVPSSSLGTQTYICNVNHKPSNTKVDKKVEPKSCGGGGSGGGGSEVQLLESGGGLVQPGGSLRLSCAASGFTFRSFGMSWVRQAPGKGPEWVSSISGSGSDTLYADSVKGRFTISRDNSKNTLYLQMNSLRPEDTAVYYCTIGGSLSRSSQGTLVTVSS
light: QAVVTQEPSLTVSPGGTVTLTCRSSTGAVTTSNYANWVQQKPGQAPRGLIGGTNKRAPWTPARFSGSLLGDKAALTLLGAQPEDEAEYFCALWYSNLWVFGGGTKLTVLGQPKAAPSVTLFPPSSEELQANKATLVCLISDFYPGAVTVAWKADSSPVKAGVETTTPSKQSNNKYAASSYLSLTPEQWKSHRSYSCQVTHEGSTVEKTVAPTECS
notes: no Fc; also called anti-B7H4xCD3 1D11C2-hzSP34_PR512 Fab-Fab-(G4S)2-Alb23; B7H4xCD3xALB trispecific antibody
- binding result (human serum albumin): binds

B3: PR001197 (bispecific antibody)
chain 1: QVQLVESGGGLVKPGESLRLSCAASGFTFSDYYMYWVRQAPGKGLEWVAIISDGGYYTYYSDIIKGRFTISRDNAKNSLYLQMNSLKAEDTAVYYCARGFPLLRHGAMDYWGQGTLVTVSSASTKGPSVFPLAPSSKSTSGGTAALGCLVKDYFPEPVTVSWNSGALTSGVHTFPAVLQSSGLYSLSSVVTVPSSSLGTQTYICNVNHKPSNTKVDKKVEPKSC
chain 2: DIQMTQSPSSLSASVGDRVTITCKASQNVDTNVAWYQQKPGQAPKSLIYSASYRYSDVPSRFSGSASGTDFTLTISSVQSEDFATYYCQQYDSYPYTFGGGTKLEIKRTVAAPSVFIFPPSDEQLKSGTASVVCLLNNFYPREAKVQWKVDNALQSGNSQESVTEQDSKDSTYSLSSTLTLSKADYEKHKVYACEVTHQGLSSPVTKSFNRGECEVQLVESGGGLVQPGGSLKLSCAASGFTFNTYAMNWVRQASGKGLEWVGRIRSKYNNYATYYADSVKDRFTISRDDSKSTLYLQMNSLKTEDTAVYYCVRHGNFGNSYVSWFAYWGQGTLVTVSSASTKGPSVFPLAPSSKSTSGGTAALGCLVKDYFPEPVTVSWNSGALTSGVHTFPAVLQSSGLYSLSSVVTVPSSSLGTQTYICNVNHKPSNTKVDKKVEPKSC
light: QAVVTQEPSLTVSPGGTVTLTCRSSTGAVTTSNYANWVQQKPGQAPRGLIGGTNKRAPWTPARFSGSLLGDKAALTLLGAQPEDEAEYFCALWYSNLWVFGGGTKLTVLGQPKAAPSVTLFPPSSEELQANKATLVCLISDFYPGAVTVAWKADSSPVKAGVETTTPSKQSNNKYAASSYLSLTPEQWKSHRSYSCQVTHEGSTVEKTVAPTECS
- Cell killing EC50 (PSMA): 0.143 nM
- Maximum killing rate (%) (PSMA): 52.4%

B4: PR001198 (bispecific antibody)
chain 1: QVQLVQSGAEVKKPGSSVKVSCKASGGTFSNYWMHWVRQAPGQGLEWMGATYRGHSDTYYNQKFKGRVTITADKSTSTAYMELSSLRSEDTAVYYCARGAIYDGYDVLDNWGQGTLVTVSSASTKGPSVFPLAPSSKSTSGGTAALGCLVKDYFPEPVTVSWNSGALTSGVHTFPAVLQSSGLYSLSSVVTVPSSSLGTQTYICNVNHKPSNTKVDKKVEPKSC
chain 2: not shown
light: QAVVTQEPSLTVSPGGTVTLTCRSSTGAVTTSNYANWVQQKPGQAPRGLIGGTNKRAPWTPARFSGSLLGDKAALTLLGAQPEDEAEYFCALWYSNLWVFGGGTKLTVLGQPKAAPSVTLFPPSSEELQANKATLVCLISDFYPGAVTVAWKADSSPVKAGVETTTPSKQSNNKYAASSYLSLTPEQWKSHRSYSCQVTHEGSTVEKTVAPTECS
- Cell killing EC50 (BCMA): 0.0178 nM
- Maximum killing rate (%) (BCMA): 61.3%

B5: PR001200 (bispecific antibody)
chain 1: EVQLVESGGGLVQPGRSLRLSCTASGSDINDYPITWVRQAPGQGLEWIGFINSGGSTWYASWVKGRFTISRDDSKSIAYLQMNSLKTEDTAVYYCARGYSTYYRDFNIWGQGTLVTVSSASTKGPSVFPLAPSSKSTSGGTAALGCLVKDYFPEPVTVSWNSGALTSGVHTFPAVLQSSGLYSLSSVVTVPSSSLGTQTYICNVNHKPSNTKVDKKVEPKSC
chain 2: DIQMTQSPSSLSASVGDRVTINCQASQSIDSNLAWFQQKPGQPPKLLIYRASNLASGVPDRFSGSGSGTDFTLTISSLEAEDVATYYCLGGVGAVSYRTSFGGGTKVEIKRTVAAPSVFIFPPSDEQLKSGTASVVCLLNNFYPREAKVQWKVDNALQSGNSQESVTEQDSKDSTYSLSSTLTLSKADYEKHKVYACEVTHQGLSSPVTKSFNRGECEVQLVESGGGLVQPGGSLKLSCAASGFTFNTYAMNWVRQASGKGLEWVGRIRSKYNNYATYYADSVKDRFTISRDDSKSTLYLQMNSLKTEDTAVYYCVRHGNFGNSYVSWFAYWGQGTLVTVSSASTKGPSVFPLAPSSKSTSGGTAALGCLVKDYFPEPVTVSWNSGALTSGVHTFPAVLQSSGLYSLSSVVTVPSSSLGTQTYICNVNHKPSNTKVDKKVEPKSC
light: QAVVTQEPSLTVSPGGTVTLTCRSSTGAVTTSNYANWVQQKPGQAPRGLIGGTNKRAPWTPARFSGSLLGDKAALTLLGAQPEDEAEYFCALWYSNLWVFGGGTKLTVLGQPKAAPSVTLFPPSSEELQANKATLVCLISDFYPGAVTVAWKADSSPVKAGVETTTPSKQSNNKYAASSYLSLTPEQWKSHRSYSCQVTHEGSTVEKTVAPTECS
- Cell killing EC50 (human ROR1): 1.16 nM
- Maximum killing rate (%) (human ROR1): 54.8%

B6: PR000929 (VHH)
VHH: EVQLLESGGGLVQPGGSLRLSCAASGFTFRSFGMSWVRQAPGKGPEWVSSISGSGSDTLYADSVKGRFTISRDNSKNTLYLQMNSLRPEDTAVYYCTIGGSLSRSSQGTLVTVSS
notes: Humanized single-domain antibody, no Fc; also called anti-HSA Alb23-his; single-domain antibody Alb23
- binding result (human serum albumin): binds
